Laboratory results reported in patent publication US20220324988A1 (NANKAI UNIVERSITY, published 2022).
Numbering of substitutions follows the chain as printed.

What was measured:
[1] = target: T1, human CD40 expressed on cells (human, UniProt P25942 21-277); assay: cell-based or functional assay
[2] = target: T2, human CD40 recombinant protein (Acrobiosystems, CD 0-H5228) (human, UniProt P25942 21-193); assay: direct ELISA, coated human CD40 1 µg/ml, anti-human Fc-HRP
T2 construct: Bought protein
T2 sequence (P25942 21-193 limits assumed): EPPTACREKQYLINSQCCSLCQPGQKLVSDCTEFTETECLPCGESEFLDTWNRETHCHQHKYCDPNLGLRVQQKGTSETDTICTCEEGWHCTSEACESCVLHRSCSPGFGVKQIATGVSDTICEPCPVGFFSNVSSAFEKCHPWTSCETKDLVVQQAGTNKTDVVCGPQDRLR
Procedure: The antibodies were incubated at room temperature for 30 min, and washed 8 times with 0.05% PBS-Tween.

[3] = target: T2, human CD40 recombinant protein …; assay: SPR (Biacore T200), antibody captured on Protein A chip, CD40 as analyte
Procedure: The antigen to be tested, i.e. human CD40 recombinant protein (Acrobiosystems, CD 0-H5228) was diluted gradiently with a Running buffer (HBS-EP+, GE) at concentrations of 2 μM, 1 μM, 500 nM, 250 nM, 125 nM, 62.5 nM, 31.25 nM. The above-mentioned CD40 with different concentrations was flowed through the chip on which the antibody was captured at a flow rate of 30 μL/min for 120 s of binding, and then the Running buffer was flowed through the chip at a flow rate of 30 μL/min for 240 s, with the antigen dissociating gradually from the chip on which the antibody was captured. Data processing was performed using BIAevaluation software S200, the necessary software of Biacore T200 instrument and binding constants (Ka), dissociation constants (Kd), and equilibrium dissociation constants (KD) were calculated.

[4] = target: T1, human CD40 expressed on cells; assay: flow cytometry on 293FT cells expressing human CD40
Procedure: (§1) Cells expressing Rhesus monkey CD40 and human CD40, respectively, were obtained after 48 h of expression.
(§2) GraphPad Prism 6.0 was used to fit the curves and calculate EC50.

[5] = target: T3, Rhesus monkey CD40 expressed on 293FT cells (Rhesus monkey (Macaca mulatta), UniProt F6SNI1 21-278); assay: flow cytometry on 293FT cells expressing Rhesus CD40
T3 construct: whole, on cells; also called Rhesus CD40
Procedure: as §1, §2

[6] = target: T4, human OX40 (Acrobiosystems, OX 0-H5224) (human, UniProt P43489 29-216); assay: direct ELISA, coated human OX40 1 µg/ml, anti-human Fc-HRP
T4 construct: Bought protein
T4 sequence (looked up): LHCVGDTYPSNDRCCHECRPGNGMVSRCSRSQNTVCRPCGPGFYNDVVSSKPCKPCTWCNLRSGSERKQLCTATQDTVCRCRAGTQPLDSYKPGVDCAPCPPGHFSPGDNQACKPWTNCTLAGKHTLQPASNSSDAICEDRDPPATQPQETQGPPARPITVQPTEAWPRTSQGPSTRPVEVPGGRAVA
Procedure: (§3) PBS solutions containing 1 μg/ml of human OX40 (Acrobiosystems, OX 0-H5224), 4-1BB (Acrobiosystems, 41B-H5227), GITR (Acrobiosystems, GIR-H5228) and CD40 (Acrobiosystems, CD 0-H5228) were coated on the ELISA plates and incubated overnight at 4° C. […] After 30 mins of incubation at room temperature, washing was carried out for 8 times with 0.05% PBS-Tween.

[7] = target: T5, human 4-1BB (Acrobiosystems, 41B-H5227) (human, UniProt Q07011 24-186); assay: direct ELISA, coated human 4-1BB 1 µg/ml, anti-human Fc-HRP
T5 construct: Bought protein
T5 sequence (Q07011 24-186): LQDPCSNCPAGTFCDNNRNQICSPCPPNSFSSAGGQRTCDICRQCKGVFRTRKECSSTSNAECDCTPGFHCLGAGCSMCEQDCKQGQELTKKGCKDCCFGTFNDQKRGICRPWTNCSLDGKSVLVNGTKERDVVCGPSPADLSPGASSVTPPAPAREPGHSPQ
Procedure: as §3

T1 sequence (P25942 21-277): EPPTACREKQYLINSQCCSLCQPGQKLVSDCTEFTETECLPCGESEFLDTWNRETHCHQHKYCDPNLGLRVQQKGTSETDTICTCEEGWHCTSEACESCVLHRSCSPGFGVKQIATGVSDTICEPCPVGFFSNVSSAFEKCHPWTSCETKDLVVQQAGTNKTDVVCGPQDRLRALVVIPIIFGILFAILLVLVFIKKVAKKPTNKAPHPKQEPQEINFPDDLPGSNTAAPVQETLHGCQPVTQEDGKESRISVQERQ

B1: NK004 (antibody, human IgG1, kappa, V domains shown)
VH: QVQLVESGGGLVQPGRSLRISCAGSGFTFGDSAMHWVRQAPGKGLEWVSGISRNSDTIVYADSVKGRFTISRDNAKNSLYLQMNSLRAEDTALYYCARRSGDHHAMDVWGPGTTVTVSS
VL: ETTLTQSPATLSLSPGERATLSCRASQSVNTYLAWYQQKPGQAPRLLMYDSSSRATGIPDRFSGSGSGTDFTLTISRLEPEDFAVYYCQQYSTVPLTFGGGTKLEIKR
notes: also called antibody NK004
Question: Which results are given for B1?
Answer: EC50 of activation of the NF-κB-GFP+hCD40 reporter cell line, with the addition of the secondary antibody [1]: 4 nM; EC50 (read off the curve) [2]: ~0.7 nM; Kd [3]: 440 nM; koff [3]: 0.039 s⁻¹; kon [3]: 88700 M⁻¹ s⁻¹

B2: NK003-AM-18 (antibody, human IgG1, kappa, V domains shown)
VH: not shown
VL: DVVMTQSPLSLPVTPGESATISCRSSQSLLYSNGYNYLDWYLLKPGQSPQLLIYLGSNRASGVPDRFSGSGSGTDFTLKISRVEAEDVGLYYCMQQLEQPYTFGQGTKLEIKR
Question: With B2 as the binder, how does the “EC50 of activation of the NF-kB-GFP+hCD40 reporter cell line, cross-linked with goat anti-human Fc” value [1] read?
Answer: 0.3 nM

Question: What about the “fold improvement of reporter cell activity against wild type NK003” value [1] of the same binder?
Answer: ~10 times

B3: NK003-AM-18-EP1 (antibody, human IgG1, kappa, V domains shown)
VH: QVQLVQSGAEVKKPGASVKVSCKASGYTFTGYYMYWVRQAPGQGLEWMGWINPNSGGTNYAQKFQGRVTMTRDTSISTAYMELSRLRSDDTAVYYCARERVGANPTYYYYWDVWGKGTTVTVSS
VL: B2 VL
Question: For B3, which “EC50 of activation of the NF-κB-GFP+hCD40 reporter cell line, cross-linked with goat anti-human Fc” value [1] is on record?
Answer: 0.35 nM

B4: NK003 (antibody, human IgG1, kappa, V domains shown)
VH: not shown
VL: B2 VL with Q96G, Q99T
notes: also called antibody NK003; wild type NK003
Question: Which results are given for B4?
Answer: EC50 of activation of the NF-κB-GFP+hCD40 reporter cell line, cross-linked with goat anti-human Fc [1]: 2 nM; EC50 of apoptosis of Raji cells (CD95 expression, MFI), cross-linked with goat anti-human Fc [1]: 2.6 nM; EC50 of apoptosis of Ramos cells (CD95 expression, MFI), cross-linked with goat anti-human Fc [1]: 3 nM; EC50 [4]: 10 nM; EC50 [5]: 8 nM; binding result [6]: no binding; binding result [7]: no binding; Kd [3]: 331 nM; koff [3]: 0.0121 s⁻¹; kon [3]: 36700 M⁻¹ s⁻¹

B5: NK003-AM-9 (antibody, human IgG1, kappa, V domains shown)
VH: not shown
VL: B2 VL with Q95N, Q96G, Q99V
Question: Which “EC50 of activation of the NF-kB-GFP+hCD40 reporter cell line, cross-linked with goat anti-human Fc” value [1] does the source give for B5 here?
Answer: 0.25 nM

Question: What about the “fold improvement of reporter cell activity against wild type NK003” value [1] of the same binder?
Answer: ~10 times

B6: HEL (antibody, human IgG1, kappa, V domains shown)
VH: EVQLEQSGAELMKPGASVKISCKATGYTFTTYWIEWIKQRPGHSLEWIGEILPGSDSTYYNEKVKGKVTFTADASSNTAYMQLSSLTSEDSAVYYCARGDGFYVYWGQGTTLTVSS
VL: DIELTQSPATLSVTPGDSVSLSCRASQSISNNLHWYQQKSHESPRLLIKYTSQSMSGIPSRFSGSGSGTDFTLSINSVETEDFGVYFCQQSGSWPRTFGGGTKLDIKR
notes: IgG1 negative control antibody; also called negative control HEL; HEL control antibody
Question: Does B6 bind [2]?
Answer: no binding (tested: 500 nM)
